In the RNAGym collection of RNA variant scans (doi:10.1093/molbev/msab373):

B1: Azoarcus group I ribozyme (parent)
chain: GUGCCUUGCGCCGGGAAACCACGCAAGGGAUGGUGUCAAAUUCGGCGAAACCUAAGCGCCCGCCCGGGCGUAUGGCAACGCCGAGCCAAGCUUCGGCGCCUGCGCCGAUGAAGGUGUAGAGACUAGACGGCACCCACCUAAGGCAAACGCUAUGGUGAAGGCAUAGUCCAGGGAGUGGCGAAAGUCACACAAACCGG

Variants of: B1
Assay: reverse-splicing fitness (ratio to wild type); higher = more active; in vitro selection; Mg2+ level not given
Summary of the method: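 An in vitro group I ribozyme library with randomized positions was T7-transcribed and gel-purified. In triplicate, 10 pmol RNA in EPPS pH 7.5 was reacted with 50 pmoles of a 30-nt RNA substrate for 1 h at 37 °C across several added MgCl2 levels (1–48 mM), then stopped with EDTA. Products were reverse transcribed from a substrate-complementary primer, PCR-amplified and sequenced (HiSeq 4000). Fitness is a variant's read proportion after selection over that before, normalised to wild type.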

Variant	reverse-splicing fitness
A111U A120U A145C C169A	0.00435
A111U A120U A145C C169U	0.0629
A111U A120U A145C C169G	0.0459
A111U A120U A145G C150G	0.0631
A111U A120U A145G C150U	0.486
A111U A120U A145G C150A	0.0883
A111U A120G C150U C169A U176A	0.0189
A111U A120G C150U C169A U176C	0.0245
A111U A120G C150U C169A U176G	0.00517
A111U A120G C169G U176A	0.0412
A111U A120G C169G U176C	0.0539
A111U A120G C169G U176G	0.00419
A111U A120G A145U	0.172
A111U A120U A145G C150U C169U U176C	0.0144
A111U A120U A145G C150U C169U U176A	0.0115
A111U A120U A145G C150U C169U U176G	0.00291
A111U A120U A145U C150G C169A U176A	0.00319
A111U A120U A145U C150G C169A U176C	0.00274
A111U A120U A145U C150G C169A U176G	0.00255
A111U A120G A145U C150A C169U U176G	0.0052
A111U A120G A145U C150A C169U U176C	0.0173

Variant	reverse-splicing fitness
A111U A120G A145U C150A C169U U176A	0.0271
A111U A120U A145G C169U U176A	0.0114
A111U A120U A145G C169U U176G	0.00258
A111U A120U A145G C169U U176C	0.0176
A111U A120U A145C C150U C169G	0.0115
A111U A120U A145C C150U C169U	0.0159
A111U A120U A145C C150U C169A	0.00229
A111U A120U A145G C150A C169G U176G	0.00267
A111U A120U A145G C150A C169G U176A	0.00807
A111U A120U A145G C150A C169G U176C	0.00547
A111U A120G A145U C150A U176A	0.0129
A111U A120G A145U C150A U176G	0.00474
A111U A120G A145U C150A U176C	0.018
A111U A120G C169A U176A	0.0264
A111U A120G C169A U176C	0.0386
A111U A120G C169A U176G	0.00454
A111U A120G C150A C169U	0.0186
A111U A120G C150A C169G	0.0231
A111U A120G C150A C169A	0.015
A111U A120U A145C C150U C169U U176A	0.0036
A111U A120U A145C C150U C169U U176C	0.00285

Variant	reverse-splicing fitness
A111U A120U A145C C150U C169U U176G	0.0019
A111U A120G A145U C150A C169G U176C	0.0194
A111U A120G A145U C150A C169G U176G	0.00465
A111U A120G A145U C150A C169G U176A	0.0165
A111U A120U A145C C150G U176A	0.0107
A111U A120U A145C C150G U176C	0.0148
A111U A120U A145C C150G U176G	0.00337
A111U A120U A145C C150G C169A U176G	0.00254
A111U A120U A145C C150G C169A U176C	0.00276
A111U A120U A145C C150G C169A U176A	0.00234
A111U A120U A145G C150A C169G	0.00946
A111U A120U A145G C150A C169U	0.012
A111U A120U A145G C150A C169A	0.00554
A111U A120G C150G C169U U176G	0.00577
A111U A120G C150G C169U U176C	0.0149
A111U A120G C150G C169U U176A	0.0137
A111U A120U A145U C150G C169U U176A	0.00295
A111U A120U A145U C150G C169U U176G	0.00222
A111U A120U A145U C150G C169U U176C	0.0031
A111U A120U A145C C150A C169U U176A	0.00285
A111U A120U A145C C150A C169U U176G	0.00241

Variant	reverse-splicing fitness
A111U A120U A145C C150A C169U U176C	0.00285
A111U A120U A145G C150G C169U U176A	0.00644
A111U A120U A145G C150G C169U U176G	0.00383
A111U A120U A145G C150G C169U U176C	0.00615
A111U A120G C150A C169U U176A	0.0295
A111U A120G C150A C169U U176G	0.0082
A111U A120G C150A C169U U176C	0.0205
A111U A120G C150G C169G U176A	0.00621
A111U A120G C150G C169G U176G	0.00442
A111U A120G C150G C169G U176C	0.00471
A111U A120U A145G C150A C169U U176G	0.00312
A111U A120U A145G C150A C169U U176A	0.00532
A111U A120U A145G C150A C169U U176C	0.00537
A111U A120U A145G C150U C169G U176C	0.00802
A111U A120U A145G C150U C169G U176G	0.0024
A111U A120U A145G C150U C169G U176A	0.00769
A111U A120U A145C C150A C169A U176G	0.00243
A111U A120U A145C C150A C169A U176A	0.00272
A111U A120U A145C C150A C169A U176C	0.00287
A111U A120G A145G C169G U176G	0.00492
